Key:
[1] = molecular target: T1, PGI1 (native, un-tagged, from EBY100 lysate) (Saccharomyces cerevisiae, UniProt P12709 2-554); test: co-immunoprecipitation, Nb coupled to NHS-agarose beads, EBY100 yeast lysate (native target), SDS-PAGE
T1 construct: mature; Endogenous untagged protein, 61 kDa band; also called YBR196C; endogenous PGI1
Method: (§1) Each PGI1-specific Nanobody was covalently linked to NHS-agarose beads. The beads that were functionalized with these PGI1-specific Nanobodies were incubated for an hour at 4° C. on a rotating device with either an EBY100 lysate or the lysate of the engineered Yeast strain expressing PGI1 (Yeast GFP fusion collection reference: GFP(+)12, H11) as a GFP-tagged protein. After washing, these beads analyzed on SDS-PAGE (FIG. 14A). Separated proteins were transferred to a PVDF membrane and the Western blot was developed with a GFP-specific antibody to confirm the presence of GFP-tagged PGI1 (FIG. 14B). 55=Nb clone CA17455 corresponding to SEQ ID NO: 15, used as trapper/stripper for PGI1, serves as a positive control.
(§2) Individual clones were isolated from the enriched sub-library by plating tenfold serial dilutions of the overnight-grown phage-infected E. coli TG1 cells in LB. 96 individual clones were picked and grown in a 96-well plate containing LB supplemented with 100 μg/mL ampicillin. Plasmids containing the Nanobody encoding genes were purified, sequenced and grouped into sequence families (Material and methods). A representative member of each sequence family was selected. Six different PGI1 specific Nanobodies, derived from four different sequence families (Nb clone CA17791 corresponding to SEQ ID NO: 46, CA17792-SEQ ID NO:47, CA17793-SEQ ID NO:48, CA17794-SEQ ID NO:49, CA17795-SEQ ID NO:50, and CA17796-SEQ ID NO:51) were selected based on their CDR3 sequences. Their encoding plasmid was transformed into the E. coli WK6 expression strain to express and purify each Nanobody of interest. The specificity of the PGI1-specific Nanobodies was confirmed by linking separate Nanobodies on NHS-agarose beads for co-immunoprecipitation assays. The beads that were functionalized with these PGI1-specific Nanobodies and incubated for an hour at 4° C. on a rotating device with either an EBY100 lysate expressing native (un-tagged) PGI1 or the lysate of the engineered yeast strain (GFP(+)12, H11) expressing PGI1 as a GFP-tagged protein. After washing, these beads were resuspended in SDS-PAGE loading dye and analyzed on SDS-PAGE (FIG. 14A). Separated proteins were also transferred to PVDF membranes and the Western blot was developed with a GFP-specific antibody to confirm the presence of the GFP-tagged PGI1 (FIG. 14B).

GFP-tagged PGI1 = molecular target: T2, GFP-tagged PGI1 (Saccharomyces cerevisiae, UniProt P12709 2-554); test: co-immunoprecipitation, Nb coupled to NHS-agarose beads, lysate of the yeast strain expressing the GFP-tagged target, SDS-PAGE
T2 construct: Yeast GFP Fusion Collection strain; 88 kDa band; also called GFP-PGI1; Yeast GFP fusion collection GFP(+)12, H11; not shown: GFP tag
Method: as §1, §2

[2] = molecular target: T3, SSA1 (native, from EBY100 lysate) (Saccharomyces cerevisiae, UniProt P10591 2-642); test: co-IP, Nb on NHS-agarose beads, EBY100 yeast lysate, SDS-PAGE
T3 construct: mature; Endogenous untagged protein; also called YAL005C

GFP-tagged SSA1 = molecular target: T4, GFP-tagged SSA1 (Saccharomyces cerevisiae, UniProt P10591 2-642); test: co-immunoprecipitation, Nb coupled to NHS-agarose beads, lysate of the yeast strain expressing the GFP-tagged target, Western blot anti-GFP
T4 construct: Yeast GFP Fusion Collection strain; also called Yeast GFP fusion collection GFP(+)10, E4; not shown: GFP tag
Method: Six SSA1-specific Nanobodies (60=Nb clone CA17560 corresponding to SEQ ID NO: 19, 61=CA17561-SEQ ID NO: 20, 62=CA17562-SEQ ID NO: 21, 63=CA17563-SEQ ID NO: 22, 64=CA17564-SEQ ID NO: 23, 65=CA17565-SEQ ID NO: 24) were characterized by co-immunoprecipitation assays. Each SSA1-specific Nanobodies was covalently linked to NHS-agarose beads. The beads that were functionalized with these SSA1-specific Nanobodies were incubated for an hour at 4° C. on a rotating device with either an EBY100 lysate or the lysate of the engineered Yeast strain expressing SSA1 (Yeast GFP fusion collection reference: GFP(+)10, E4) as a GFP-tagged protein. After washing, these beads were resuspended in SDS-PAGE loading dye and analyzed on SDS-PAGE (FIG. 6A). Separated proteins were transferred to a PVDF membrane and the Western blot (FIG. 6B) was developed with GFP-specific antibody to confirm the presence of GFP-tagged SSA1.

T1 sequence (P12709 2-554): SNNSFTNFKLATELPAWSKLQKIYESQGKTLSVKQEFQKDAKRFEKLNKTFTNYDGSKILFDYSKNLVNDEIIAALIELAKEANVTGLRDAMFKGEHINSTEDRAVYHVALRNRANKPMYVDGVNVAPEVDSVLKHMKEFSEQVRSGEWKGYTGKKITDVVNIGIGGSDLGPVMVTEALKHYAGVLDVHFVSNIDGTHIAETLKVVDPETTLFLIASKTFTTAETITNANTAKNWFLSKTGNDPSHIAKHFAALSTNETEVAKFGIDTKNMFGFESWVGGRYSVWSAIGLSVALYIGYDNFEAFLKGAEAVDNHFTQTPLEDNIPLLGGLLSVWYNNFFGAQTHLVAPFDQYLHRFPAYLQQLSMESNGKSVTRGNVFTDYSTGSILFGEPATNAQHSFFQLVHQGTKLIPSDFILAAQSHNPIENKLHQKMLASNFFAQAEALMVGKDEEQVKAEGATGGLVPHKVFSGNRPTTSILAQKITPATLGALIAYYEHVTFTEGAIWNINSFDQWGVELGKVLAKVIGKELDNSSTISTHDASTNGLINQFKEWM
T2 sequence (P12709 2-554): as above
T4 sequence (P10591 2-642): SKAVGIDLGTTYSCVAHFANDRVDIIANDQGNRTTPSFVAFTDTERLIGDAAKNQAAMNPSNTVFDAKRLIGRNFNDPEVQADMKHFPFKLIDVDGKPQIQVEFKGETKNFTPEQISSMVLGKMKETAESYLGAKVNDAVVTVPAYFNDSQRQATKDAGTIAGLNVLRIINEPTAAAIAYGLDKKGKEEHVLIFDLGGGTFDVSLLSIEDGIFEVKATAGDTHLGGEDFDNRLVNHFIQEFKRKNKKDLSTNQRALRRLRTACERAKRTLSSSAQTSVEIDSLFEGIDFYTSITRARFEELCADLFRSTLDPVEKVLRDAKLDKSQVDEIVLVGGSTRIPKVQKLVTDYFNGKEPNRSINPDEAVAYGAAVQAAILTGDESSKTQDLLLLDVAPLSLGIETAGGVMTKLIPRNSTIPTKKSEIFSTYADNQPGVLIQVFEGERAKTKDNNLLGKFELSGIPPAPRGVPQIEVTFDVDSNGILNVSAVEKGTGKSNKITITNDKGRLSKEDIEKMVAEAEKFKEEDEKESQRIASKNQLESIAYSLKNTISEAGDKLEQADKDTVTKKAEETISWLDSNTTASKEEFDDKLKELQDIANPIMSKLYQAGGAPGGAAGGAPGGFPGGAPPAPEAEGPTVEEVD
T3 sequence (P10591 2-642): as above

Row | Binder | binding result [1] | binding result (GFP-tagged PGI1) | binding result [2] | binding result (GFP-tagged SSA1)
1 | CA17794 (VHH, C-terminal 6xHis-EPEA tag is part of the entry) VHH: QVQLVESGGGLVQPGGSLRLSCTASGVTFSRYAMSWYRQAPGKERELVATITGAGSSTNYEDSVKGRFTISRDNAKNTVYLQMNSLKPEDTAVYYCYADHYGLGYLDYWGQGTQVTVSS | binds | binds | – | –
2 | CA17792 (VHH, C-terminal 6xHis-EPEA tag is part of the entry) VHH: QVQLVESGGGLVQPGGSLRLSCAASGISFGSYTMAWYRQAPGKQRDMVADITTGGRTNYADSVKGRFTISRDNAKNTVYLQMNSLKSEDTAVYYCKADFAYGRDLTYWGQGTQVTVSS | binds | binds | – | –
3 | CA17791 (VHH, C-terminal 6xHis-EPEA tag is part of the entry) VHH: QVQLVESGGGLVQPGGSLRLSCAASGITFSSYAMGWYRQAPGKERELVARITSGGSTDYAVSVKGRFTISRDNANNLVYLQMNSLNSEDTAVYYCHSQYSYGPLEYWGQGTQVTVSS | binds | binds | – | –
4 | CA17796 (VHH, C-terminal 6xHis-EPEA tag is part of the entry) VHH: QVQLVESGGGLVQPGGSLRLSCAASGISFHSYAMGWYRQAPGKQRELVSTITTGGSTDYAVSVKGRFTISRDNAKNTVYLQMNNLNSEDTAVYYCHSQYAYGPLEYWGQGTQVTVSS | binds | binds | – | –
5 | CA17795 (VHH, C-terminal 6xHis-EPEA tag is part of the entry) VHH: QVQLVESGGGLVQPGGSLRLSCAASGSFFNINAMAWYRQAPGKQRELVAVIASSGRTNYADSVSGRFTISRDNAKNTVYLQMNSLKPEDTAVYYCNSKIRQASWNLVLSDHWGQGTQVTVSS | binds | binds | – | –
6 | CA17565 (VHH, C-terminal 6xHis-EPEA tag is part of the entry) VHH: QVQLVESGGGRVQPGGSLRLSCVASGFTFTSYGMSWYRQTPGKEREFVAAISSESTWADYGDSVKGRFTISRDNAKKMVYLQMNSLKPDDTAVYYCNRDQVPWPTWGPGTQVTVSS | – | – | binds | binds
7 | CA17793 (VHH, C-terminal 6xHis-EPEA tag is part of the entry) VHH: QVQLVESGGGLVRPGGSLRLSCAASGITFSSYTMGWYRQAPGKQRELVATITTGGSTNYAVSAKGRFTISRDNANNRVTLQMNSLNSEDTAAYYCHSRFAYGPLEYWGQGTQVTVSS | binds | binds | – | –
8 | CA17562 (VHH, C-terminal 6xHis-EPEA tag is part of the entry) VHH: QVQLVESGGGLVQPGGSLRLSCAASGFDFSRNRLNWHRQAPGKQRELVATIGSNGPRYADSVKDRFTISRDNEKNTVYLEMNSVKPEDTAVYYCAARGYWGQGTQVTVSS | – | – | binds | binds
9 | CA17564 (VHH, C-terminal 6xHis-EPEA tag is part of the entry) VHH: QVQLVESGGGLVQPGDSLRLSCVVSVQHFGNYIVGWFRQPPGKEREFVSAISRGLRTYYADSVKGRVTISRDNAKNSVYLQMNSLKPEDTAVYYCAGSRLLEGAPRDSRGYNNWGQGTQVTVSS | – | – | binds | binds
10 | CA17563 (VHH, C-terminal 6xHis-EPEA tag is part of the entry) VHH: QVQLVESGGGTVQAGDSLRLSCSASGRALTPYTMAWFRQPPGKERELVAAIGRTGSGTRYAEAVKDRFTISRDNDKQELYLQMNSLKPEDTAVYYCAANRRLTTSLEYDYWGQGTQVTVSS | – | – | binds | binds

Reference: patent publication US20240287501A1 (VIB VZW, published 2024)
